Measurements published in the supplement of paper PMC10567573.

B1: TOR1AIP2 (parent)
chain: YKYCDHENAAFKDVALVLTVLLEE

Variants of: B1
Experiment: protein stability index of a GFP-peptide fusion (GPS, HEK-293T) (PSI 1-6); higher = more stable
Conditions: c terminus: a fixed tail appended
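Further: lentivirally expressed fusions sorted by FACS into six bins by GFP to DsRed ratio, PSI derived from sequencing read proportions per bin multiplied by bin number.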

Row | Variant | protein stability index
1 | YKYCDHENAAFKDVALVLTYLLEE [V20Y] | 3.45
2 | YKYCDHENAAFKDVALVLTQLLEE [V20Q] | 1.56
3 | YKYCDHENAAFKDVALVLTMLLEE [V20M] | 4.6
4 | YKYCDHENAAFKDVALVLTGLLEE [V20G] | 2.83
5 | YKYCDHENAAFKDVALVLTELLEE [V20E] | 1.73
6 | YKYCDHENAAFKDVALVLTNLLEE [V20N] | 2.29
7 | YKYCDHENAAFKDVALVLTCLLEE [V20C] | 2.82
8 | YKYCDHENAAFKDVALVLTHLLEE [V20H] | 1.46
9 | YKYCDHENAAFKDVALVLTKLLEE [V20K] | 2.03
10 | YKYCDHENAAFKDVALVLTRLLEE [V20R] | 2.03
11 | YKYCDHENAAFKDVALVLTSLLEE [V20S] | 1.41
12 | YKYCDHENAAFKDVALVLTVLLLE [E23L] | 5.46
13 | YKYCDHENAAFKDVALVLTVLLIE [E23I] | 2.81
14 | YKYCDHENAAFKDVALVLTVLLAE [E23A] | 3.33
15 | YKYCDHENAAFKDVALVLTVLLPE [E23P] | 4
16 | YKYCDHENAAFKDVALVLTVLLQE [E23Q] | 2.07
17 | YKYCDHENAAFKDVALVLTVLLNE [E23N] | 2.26
18 | YKYCDHENAAFKDVALVLTVLLCE [E23C] | 4.77
19 | YKYCDHENAAFKDVALVLTVLLHE [E23H] | 2.89
20 | YKYCDHENAKFKDVALVLTVLLEE [A10K] | 3.02
21 | YKYCDHENAWFKDVALVLTVLLEE [A10W] | 3.86

Row | Variant | protein stability index
22 | YKYCDHENARFKDVALVLTVLLEE [A10R] | 1.01
23 | YKYCDHENALFKDVALVLTVLLEE [A10L] | 2.83
24 | YKYCDHENAGFKDVALVLTVLLEE [A10G] | 2.42
25 | YKYCDHENAYFKDVALVLTVLLEE [A10Y] | 3.38
26 | YKYCDHENASFKDVALVLTVLLEE [A10S] | 1.98
27 | YKYCDHENAIFKDVALVLTVLLEE [A10I] | 2.35
28 | YKYCDHENAPFKDVALVLTVLLEE [A10P] | 1.16
29 | YKYCDHENAMFKDVALVLTVLLEE [A10M] | 1.93
30 | YKYCDHENAAFKDVALVLPVLLEE [T19P] | 1.74
31 | YKYCDHENAAFKDVALVLMVLLEE [T19M] | 2.87
32 | YKYCDHENAAFKDVALVLFVLLEE [T19F] | 2.68
33 | YKYCDHENAAFKDVALVLDVLLEE [T19D] | 1.3
34 | YKYCDHENAAFKDVALVLNVLLEE [T19N] | 2.25
35 | YKYCDHENAAFKDVALVLCVLLEE [T19C] | 5.95
36 | YKYCDHENAAFKDVALVLKVLLEE [T19K] | 4.43
37 | YKYCDHENAAFKDVALVLHVLLEE [T19H] | 1.67
38 | YKYCDHENAAFKDVALVLRVLLEE [T19R] | 4.55
39 | YKYCDHENAAFKDVALVLLVLLEE [T19L] | 3.88
40 | YKYCDHENNAFKDVALVLTVLLEE [A9N] | 3.72
41 | YKYCDHENCAFKDVALVLTVLLEE [A9C] | 4.55
42 | YKYCDHENDAFKDVALVLTVLLEE [A9D] | 1.4

Row | Variant | protein stability index
43 | YKYCDHENIAFKDVALVLTVLLEE [A9I] | 3.88
44 | YKYCDHENWAFKDVALVLTVLLEE [A9W] | 3.05
45 | YKYCDHENQAFKDVALVLTVLLEE [A9Q] | 3.72
46 | YKYCDHENEAFKDVALVLTVLLEE [A9E] | 1.75
47 | YKYCDHENAAFKDVACVLTVLLEE [L16C] | 1.47
48 | YKYCDHENAAFKDVASVLTVLLEE [L16S] | 2.2
49 | YKYCDHENAAFKDVAPVLTVLLEE [L16P] | 2.36
50 | YKYCDHENAAFKDVAKVLTVLLEE [L16K] | 2.72
51 | YKYCDHENAAFKDVAHVLTVLLEE [L16H] | 1.9
52 | YKYCDHENAAFKDVANVLTVLLEE [L16N] | 2.88
53 | YKYCDHENAAFKDVARVLTVLLEE [L16R] | 1.4
54 | YKYCDHENAAFKDVAWVLTVLLEE [L16W] | 3.88
55 | YKYCDHENAAFKDVATVLTVLLEE [L16T] | 1.5
56 | YKYCDHENAAFKDVAEVLTVLLEE [L16E] | 1.51
57 | YKYCDHENAAFKDVALVNTVLLEE [L18N] | 3.26
58 | YKYCDHENAAFKDVALVETVLLEE [L18E] | 3.93
59 | YKYCDHENAAFKDVALVPTVLLEE [L18P] | 3.09
60 | YKYCDHENAAFKDVALVTTVLLEE [L18T] | 1.96
61 | YKYCDHENAAFKDVALVQTVLLEE [L18Q] | 3.16
62 | YKYCDHENAAFKDVALVKTVLLEE [L18K] | 3.17
63 | YKYCDHENAAFKDVALVITVLLEE [L18I] | 4.54

Row | Variant | protein stability index
64 | YKYCDHENAAFKDVALVSTVLLEE [L18S] | 3.57
65 | YKYCDHENAAFKDVALVDTVLLEE [L18D] | 4.76
66 | YKYCDHENAAFKDVALVFTVLLEE [L18F] | 2
67 | YKYCDHENAAFKDVALVGTVLLEE [L18G] | 3.58
68 | YKYCDHENAAFKDVALVHTVLLEE [L18H] | 2.77
69 | YKYCDHENAAFKDVALVRTVLLEE [L18R] | 2.16
70 | YKYCDHENAAFKDVALVYTVLLEE [L18Y] | 1.43
71 | YKYCDHENAAFKDVALVATVLLEE [L18A] | 1.91
72 | YKYCDHENAAFKDVALVCTVLLEE [L18C] | 1.6
73 | YKYCDHENAAFKDVALVLTVDLEE [L21D] | 2.29
74 | YKYCDHENAAFKDVALVLTVTLEE [L21T] | 4.25
75 | YKYCDHENAAFKDVALVLTVPLEE [L21P] | 1.73
76 | YKYCDHENAAFKDVALVLTVWLEE [L21W] | 2.84
77 | YKYCDHENAAFKDVALVLTVMLEE [L21M] | 2.03
78 | YKYCDHENAAFKDVALVLTVSLEE [L21S] | 1.5
79 | YKYCDHENAAFKDVALVLTVILEE [L21I] | 2.99
80 | YKYCDHENAAFKDVALVLTVQLEE [L21Q] | 1.73
81 | YKYCDHENAAFKDVALVLTVGLEE [L21G] | 1.05
82 | YKYCDHENAAFKDVALVLTVCLEE [L21C] | 1.47
